Assay results from US20120245099A1, “APOPTOSIS INDUCER” (NIHON UNIVERSITY, priority 2009, published 2012).

Experiments:
Assay type in all cases: cell-based
[1] = system: Cos cells; assay: Del-1 gene transfer into cultured Cos cells, H33342 nuclear staining, phase contrast and fluorescent microscopy (Example 1); conditions: 24 hours after gene transfer of cDNA in pcDNA3
Experimental: cDNA for full-length Del-1 (SEQ ID NO: 4) was integrated into an expression vector, pcDNA3 (Invitrogen), and then introduced into cultured Cos cells. As a control, pcDNA3 free from the cDNA for full-length Del-1 was used. At 24 hours after gene transfer, the cells were stained with H33342 (Hoechst) for cell nuclear staining and observed under a phase contrast microscope (transmission image) and a fluorescent microscope (H33342).

[2] = system: Cos cells; assay: Del-1 gene transfer into cultured Cos cells, chromosomal DNA electrophoresis and silver staining (Example 2); conditions: Cos cells forced to express Del-1 (pcDNA3)
Text: cDNA for full-length Del-1 (SEQ ID NO: 4) was integrated into an expression vector, pcDNA3 (Invitrogen), and then introduced into cultured Cos cells. As a control, pcDNA3 free from the cDNA for full-length Del-1 was used. For normalization of the gene transfer rate, DNA carrying the LacZ gene was also introduced simultaneously. The results obtained are shown in FIG. 2 (left and right panels).
Left panel: Chromosomal DNAs were taken from the cells and electrophoresed on a polyacrylamide gel, followed by silver staining.

[3] = system: Cos cells; assay: Del-1 gene transfer into cultured Cos cells, H33342 and C3-annexin V staining (Example 3); conditions: 24 hours after gene transfer
Experimental: cDNA for full-length Del-1 (SEQ ID NO: 4) was integrated into an expression vector and then introduced into cultured Cos cells. At 24 hours after gene transfer, the cells were stained with H33342 and with C3-annexin V (annexin V conjugated with the fluorescent dye C3) and then observed under a fluorescent microscope.
It should be noted that annexin V is capable of binding to phosphatidylserine, a component of cell membranes, while phosphatidylserine is known to leak (to be localized) outside of the cell membrane when the cells undergo apoptosis.

[4] = system: Cos cells; assay: eGFP-Del-1 expression vector in cultured Cos cells, H33342 staining (Example 4); conditions: expressed as eGFP-Del-1 fusion protein, 24 hours after gene transfer
Experimental: An expression vector designed to carry cDNA encoding eGFP-Del-1 (a fusion protein between eGFP and full-length Del-1) was introduced into cultured Cos cells. At 24 hours after gene transfer, the cells were fixed and stained with H33342.
This would mean that Del-1 secreted from the cells receiving Del-1 gene transfer would also act on their adjacent cells to thereby induce apoptosis in these cells.

[5] = system: CRL cells (human melanoma cells); assay: AP-Del-1 conditioned medium added to cells, H33342 and C3-annexin V staining (Example 5); conditions: conditioned medium of Cos cells with AP fusion protein, 24 hours after addition
Experimental: (§1) cDNA for full-length Del-1 (SEQ ID NO: 4) was integrated into an alkaline phosphatase (AP) expression vector (APtag4) and then introduced into cultured Cos cells. As a control, an AP expression vector free from the cDNA for full-length Del-1 was used. The resulting culture supernatant was measured for AP activity, normalized for AP fusion protein concentration and then added to a culture of CRL cells (human melanoma cells) or P5 cells (vascular endothelial cell line) (instead of using direct gene transfer, Cos cells were allowed to produce a recombinant protein and the resulting conditioned medium was used, because CRL and P5 were low in the efficiency of gene transfer). At 24 hours after addition, the cells were stained with H33342 and with C3-annexin V for observation.

[6] = system: P5 cells (vascular endothelial cell line); assay: as above; conditions: conditioned medium of Cos cells with AP fusion protein, 24 hours after addition
Experimental: as §1

[7] = system: CRL cells (human melanoma cells); assay: AP-Del-1 conditioned medium added to cells, chromosomal DNA electrophoresis and silver staining (Example 6); conditions: 24 hours after addition
Experimental: as §1, with “AP” for “alkaline phosphatase (AP)”, “addition, chromosomal DNAs were taken from” for “addition,”, “cells” for “cells were stained with H33342”, “electrophoresed on a polyacrylamide gel, followed by silver staining.” for “with C3-annexin V for observation.”

[8] = system: P5 cells (vascular endothelial cell line); assay: as above; conditions: 24 hours after addition
Experimental: as §1, with “AP” for “alkaline phosphatase (AP)”, “addition, chromosomal DNAs were taken from” for “addition,”, “cells” for “cells were stained with H33342”, “electrophoresed on a polyacrylamide gel, followed by silver staining.” for “with C3-annexin V for observation.”

[9] = system: Cos cells; assay: LDH activity in supernatant of Cos cells transformed with cDNA for Del-1 or its parts (Example 7); conditions: APtag4 vector, medium replaced 24 hours after gene transfer, measured after further one hour
Text: cDNA for full-length Del-1 (SEQ ID NO: 4) was integrated into an AP expression vector (APtag4) and then introduced into cultured Cos cells. Likewise, cDNA for a part of Del-1 was also integrated into APtag4 and then introduced into cultured Cos cells. As a control, an AP expression vector free from the above cDNA for full-length Del-1 or a part thereof was used. It should be noted that the members each used as a part of Del-1 were EGF-like domains in the full-length Del-1 protein, i.e., EGF1 (E1; cDNA: SEQ ID NO: 26, amino acid sequence: SEQ ID NO: 27), EGF2 (E2; cDNA: SEQ ID NO: 28, amino acid sequence: SEQ ID NO: 29) and EGF3 (E3; cDNA: SEQ ID NO: 6, amino acid sequence: SEQ ID NO: 7), a fusion protein between discoidin I-like domains, i.e., Discoidin1 and Discoidin2 (C1C2; cDNA: SEQ ID NO: 30, amino acid sequence: SEQ ID NO: 31), an amino acid substitution (D136E) mutant of the above full-length Del-1 (Del1m; cDNA: SEQ ID NO: 32, amino acid sequence: SEQ ID NO: 33), as well as an amino acid substitution (D136E) mutant of E3, i.e., E3 D136E (E3m; cDNA: SEQ ID NO: 34, amino acid sequence: SEQ ID NO: 35). […] At 24 hours after gene transfer, the medium in each case was replaced with fresh culture medium and, after further one hour, the supernatant was measured for LDH activity. A cell lysate was prepared for each case and measured for LacZ activity. […]

B1: full-length Del-1: developmentally regulated endothelial cell locus-1 protein, extracellular matrix protein, amino acid sequence SEQ ID NO: 5 (protein, listed as Mus musculus)
chain: MKHLVAAWLLVGLSLGVPQFGKGDICNPNPCENGGICLSGLADDSFSCECPEGFAGPNCSSVVEVASDEEKPTSAGPCIPNPCHNGGTCEISEAYRGDTFIGYVCKCPRGFNGIHCQHNINECEAEPCRNGGICTDLVANYSCECPGEFMGRNCQYKCSGPLGIEGGIISNQQITASSTHRALFGLRKWYPYYARLNKKGLINAWTAAENDRWPWIQINLQRKMRVTGVITQGAKRIGSPEYIKSYKIAYSNDGKTWAMYKVKGTNEEMVFRGNVDNNTPYANSFTPPIKAQYVRLYPQICRRHCTLRMELLGCELSGCSEPLGMKSGHIQDYQITASSVFRTLNMDMFTWEPRKARLDKQGKVNAWTSGHNDQSQWLQVDLLVPTKVTGIITQGAKDFGHVQFVGSYKLAYSNDGEHWMVHQDEKQRKDKVFQGNFDNDTHRKNVIDPPIYARFIRILPWSWYGRITLRSELLGCAEEE
chromosome aggregation (H33342 nuclear staining) [1]: chromosomes were aggregated | DNA ladder pattern indicative of apoptosis [2]: ladder pattern indicative of apoptosis was observed | apoptosis by H33342 and C3-annexin V staining [3]: these cells underwent apoptosis | apoptosis (chromosomal aggregation, H33342) in cells expressing the fusion protein [4]: found to undergo apoptosis | apoptosis by H33342 and C3-annexin V staining [5]: these cells underwent apoptosis | apoptosis by H33342 and C3-annexin V staining [6]: these cells underwent apoptosis | DNA ladder pattern indicative of apoptosis [7]: ladder pattern indicative of apoptosis was observed | DNA ladder pattern indicative of apoptosis [8]: ladder pattern indicative of apoptosis was observed | increase in LDH activity of supernatant, normalized by LacZ activity [9]: increase in LDH activity
